The assay concerns the target Csx30 (purified, for ITC) (Candidatus 'Scalindua brodae'). The assay can be described thus: ITC. On the technique in general: Isothermal titration calorimetry measures the heat released or taken up as one component is titrated into another.

“RpoE (purified, for ITC) (natural protein)”: the stoichiometry N was 1.

By stoichiometry N is commonly meant the number of molecules, sites or subunits per partner or assembly.
